Where a chain is given by its changes, count along the chain named. Where two headings read alike, the source gives them in different places.
T1: human OX40 protein (human, UniProt P43489 29-214, limits assumed)
T1 construct: Coated protein in ELISA
T1 sequence (looked up): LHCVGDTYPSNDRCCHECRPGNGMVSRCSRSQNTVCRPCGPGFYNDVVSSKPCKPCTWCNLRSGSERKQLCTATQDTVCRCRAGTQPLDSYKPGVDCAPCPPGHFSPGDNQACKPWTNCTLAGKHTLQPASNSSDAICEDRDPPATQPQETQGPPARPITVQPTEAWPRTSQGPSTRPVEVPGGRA

T2: mouse 4-1BB-His protein (mouse, UniProt P20334 24-187)
T2 construct: Recombinant His-tagged protein; also called mouse 4-1BB antigen; not shown: His tag
T2 sequence (looked up): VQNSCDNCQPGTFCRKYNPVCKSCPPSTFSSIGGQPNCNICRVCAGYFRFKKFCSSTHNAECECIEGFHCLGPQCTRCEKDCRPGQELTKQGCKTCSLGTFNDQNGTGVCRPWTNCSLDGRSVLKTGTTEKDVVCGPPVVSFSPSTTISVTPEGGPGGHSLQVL

T3: cynomolgus 4-1BB-His protein (cynomolgus, UniProt A9YYE7 24-186)
T3 construct: Recombinant His-tagged protein; also called cyno 4-1BB antigen; not shown: His tag
T3 sequence: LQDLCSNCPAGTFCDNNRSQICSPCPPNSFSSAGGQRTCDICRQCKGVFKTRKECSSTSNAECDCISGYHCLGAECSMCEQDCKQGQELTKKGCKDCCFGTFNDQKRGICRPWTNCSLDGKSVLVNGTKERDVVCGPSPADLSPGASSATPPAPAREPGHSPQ

B1: B16-V2 humanized antibody (VHH)
VHH: EVQLVESGGGLVQPGGSLRLSCAASGFTFSYYAIGWFRQAPGKEREGVSCISSSDGSTYYADSVKGRFTISRDNSKNTLYLQMNSLRAEDTAVYYCATDTTTRCPIWSYYVESDYWGQGTLVTVSS
notes: Humanized VHH; also called B16 VHH-V2
B2: B16 chimeric mAb (VHH)
VHH: B1 VHH with E1Q, F29L, S30D, S75A, L79V, R87K, A88P, L121Q
notes: Alpaca VHH tested as 'chimeric mAb'
B3: B210-V2 humanized antibody (VHH)
VHH: B1 VHH with D55G, G56R, Y59N, Y109N
notes: Humanized VHH; also called B210 VHH-V2
B4: B210-V3 humanized antibody (VHH)
VHH: B1 VHH with F27L, D55G, G56R, Y59N, Y109N
notes: Humanized VHH; also called B210 VHH-V3
B5: B210 chimeric mAb (VHH)
VHH: EVQLVESGGGLVQPGGSLRLSCAASGLSLDYYAIGWFRQAPGKEREGVSCISSSGRSTNYADSVKGRFTISRDNAKNTVYLQMNSLKPEDTADYYCATDTTTRCPIWSNYVESDYWGQGTQVTVSS
notes: as for B2
B6: B125 chimeric mAb (VHH)
VHH: B1 VHH with E1Q, T28A, Y31D, S75A, L79V, R87K, A88P, L121Q
notes: as for B2
B7: B125-V2 humanized antibody (VHH)
VHH: B1 VHH with T28A, Y31D
notes: Humanized VHH; also called B125 VHH-V2
B8: B164 chimeric mAb (VHH)
VHH: EVQLVESGGGLVQAGGSLRLSCAASGSIFSYMFWYRQPQGKQREYVAHITSGGRTNYADSVTGRFTISRGNNDNTMYLQMNNLKPEDTAVYYCAADDAVYTDRTYWGQGTQVTVSS
notes: as for B2
B9: B31-V3 humanized antibody (VHH)
VHH: QVQLVESGGGLVQPGGSLRLSCAASGDIFSIMFWYRQAPGKQREYVAHITSNGRTNYADSVTGRFTISRDNNKNTLYLQMNSLRAEDTAVYYCAADDATNTRTYWGQGTLVTVSS
notes: Humanized VHH captured on a Protein A chip; also called B31 VHH-V3
B10: B31-V6 humanized antibody (VHH)
VHH: B9 VHH with A23S, N72S, A95R
notes: Humanized VHH captured on a Protein A chip; also called B31 VHH-V6
B11: B31-V5 humanized antibody (VHH)
VHH: B9 VHH with A38P, P39Q, N81D
notes: Humanized VHH captured on a Protein A chip; also called B31 VHH-V5
B12: B31 chimeric mAb (VHH)
VHH: QVQLVESGGGLVQAGGSLRLSCAASGDIFSIMFWYRQPQGKQREYVAHITSNGRTNYADSVTGRFTISRGNNDNTMYLQMDNLKPQDTAVYYCAADDATNTRTYWGQGTQVTVSS
notes: Alpaca VHH tested as 'chimeric mAb' expressed in 293F cells, purified by protein G, detected with anti-human IgG and captured on Protein A; also called B31 chimeric antibody
B13: B31-V2 humanized antibody (VHH)
VHH: B9 VHH with A23S, A47S, N72S
notes: Humanized VHH expressed in 293F cells and captured on a Protein A chip; also called B31 VHH-V2
B14: B31-V4 humanized antibody (VHH)
VHH: B9 VHH with N72S, L76M, N81D
notes: Humanized VHH captured on a Protein A chip; also called B31 VHH-V4

Key:
[1] = molecular target: human 4-1BB expressed on cells (human) (UniProt Q07011); assay: flow cytometry on HEK293-4-1BB cells, PE anti-human IgG, MFI
Sequence of human 4-1BB expressed on cells (human) (Q07011 24-255): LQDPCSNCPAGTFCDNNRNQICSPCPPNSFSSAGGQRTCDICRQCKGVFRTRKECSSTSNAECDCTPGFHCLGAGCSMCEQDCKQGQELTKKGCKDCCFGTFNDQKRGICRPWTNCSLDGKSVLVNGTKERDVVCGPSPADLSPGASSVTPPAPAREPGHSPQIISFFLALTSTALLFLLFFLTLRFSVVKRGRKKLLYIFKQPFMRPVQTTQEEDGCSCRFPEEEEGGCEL

human 4-1BB-His protein [2] = molecular target: T4, human 4-1BB-His protein (human, UniProt Q07011 24-186); assay: ELISA, plate coated with human 4-1BB-His at 0.5 ug/ml, anti-human IgG-HRP detection, OD450 (panel Human 4-1BB ELISA)
T4 construct: Recombinant His-tagged protein; also called human 4-1BB-his tag; recombinant 4-1BB protein; not shown: His tag
Target sequence in this assay (Q07011 24-186 limits assumed): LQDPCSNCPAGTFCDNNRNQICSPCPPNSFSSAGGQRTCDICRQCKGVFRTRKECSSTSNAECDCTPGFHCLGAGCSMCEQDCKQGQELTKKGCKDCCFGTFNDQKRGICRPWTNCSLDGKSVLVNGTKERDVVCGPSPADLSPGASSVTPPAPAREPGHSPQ

human 4-1BB-His protein [3] = molecular target: T4, human 4-1BB-His protein; assay: SPR, Biacore T200, antibody captured on Protein A chip, human 4-1BB-His as analyte
Experimental: The binding of the humanized antibodies to recombinant human 4-1BB protein (human 4-1BB-his tag) was tested by Biacore using a capture method. […] A serial dilution of human 4-1BB-his tag protein was injected over captured antibody for 30 s at a flow rate of 10 μl/min. The antigen was allowed to dissociate for 360 s. All the experiments were carried out on a Biacore T200.

human CD40 protein = molecular target: T5, human CD40 protein (human, UniProt P25942 21-193); assay: ELISA, plate coated with human CD40 0.5 µg/ml
T5 construct: Coated protein in ELISA
T5 sequence (P25942 21-193 limits assumed): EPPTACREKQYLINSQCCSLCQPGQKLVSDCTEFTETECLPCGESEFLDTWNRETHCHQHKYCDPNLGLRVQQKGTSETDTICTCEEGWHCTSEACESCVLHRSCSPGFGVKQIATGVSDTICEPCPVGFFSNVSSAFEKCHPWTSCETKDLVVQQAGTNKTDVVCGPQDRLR
Experimental: (§1) Briefly, microtiter plates were coated with human CD40 protein or human OX40 protein at 0.5 μg/ml in PBS, 100 μl/well at 4° C. overnight, then blocked with 150 μl/well of 1% BSA. […] The plates were washed with PBS/Tween and then incubated with Anti-Human IgG (H&L) (GOAT) Antibody Peroxidase Conjugated for 30 mins at 37° C. After washing, the plates were developed with TMB substrate and analyzed by spectrophotometer at OD 450 nm.

human OX40 protein = molecular target: T1, human OX40 protein; assay: ELISA, plate coated with human OX40 0.5 µg/ml
Experimental: as §1

human 4-1BB-His protein [4] = molecular target: T4, human 4-1BB-His protein; assay: ELISA, plate coated with human 4-1BB-His, anti-human IgG-HRP
Experimental: as §1, with “4-1BB-His” for “CD40 protein or human OX40”

mouse 4-1BB-His protein [5] = molecular target: T2, mouse 4-1BB-His protein; assay: ELISA, plate coated with mouse 4-1BB-His, anti-human IgG-HRP
Experimental: as §1, with “Microtiter” for “Briefly, microtiter”, “mouse 4-1BB-His” for “human CD40 protein or human OX40”

[6] = molecular target: T3, cynomolgus 4-1BB-His protein; assay: ELISA, plate coated with cynomolgus 4-1BB-His, anti-human IgG-HRP
Experimental: as §1, with “Microtiter” for “Briefly, microtiter”, “cynomolgus 4-1BB-His” for “human CD40 protein or human OX40”

human 4-1BB-His protein [7] = molecular target: T4, human 4-1BB-His protein; assay: SPR, Biacore T200, antibody captured on Protein A chip, human 4-1BB-His as analyte; remark: listed apart in the source
Experimental: A serial dilution of human 4-1BB-his tag protein was injected over captured antibody for 30 s at a flow rate of 30 μl/min. The antigen was allowed to dissociate for 360 s. All the experiments were carried out on a Biacore T200. Data analysis was carried out using the Biacore T200 evaluation software.

mouse 4-1BB-His protein [8] = molecular target: T2, mouse 4-1BB-His protein; assay: ELISA, plate coated with mouse 4-1BB-His 0.5 µg/ml
Experimental: as §1, with “Microtiter” for “Briefly, microtiter”, “mouse 4-1BB-His” for “human CD40 protein or human OX40”

| Molecule | Kd (human 4-1BB-His protein [3]) [nM] | koff (human 4-1BB-His protein [3]) [s⁻¹] | kon (human 4-1BB-His protein [3]) [M⁻¹ s⁻¹] | binding result (human CD40 protein) | binding result (human OX40 protein) | EC50 (human 4-1BB-His protein [4]) [ng/mL] | EC50 [6] [ng/mL] | Kd (human 4-1BB-His protein [7]) [nM] | koff (human 4-1BB-His protein [7]) [s⁻¹] | kon (human 4-1BB-His protein [7]) [M⁻¹ s⁻¹] | other results |
| --- | --- | --- | --- | --- | --- | --- | --- | --- | --- | --- | --- |
| Urelumab (antibody) |  |  |  |  |  |  |  |  |  |  | EC50 (read off the curve) [1]: 2 nM; EC50 (read off the curve) (human 4-1BB-His protein [2]): 10 ng/mL |
| B1 | 1930 | 0.0898 | 46500 |  |  |  |  |  |  |  |  |
| B2 |  |  |  | no binding | no binding | 10.6 | 19.5 | 21.5 | 0.00739 | 343000 | EC50 (mouse 4-1BB-His protein [5]): 16.3 ng/mL |
| B3 | 765 | 0.041 | 53700 |  |  |  |  |  |  |  |  |
| B4 | 2560 | 0.0408 | 15900 |  |  |  |  |  |  |  |  |
| B5 |  |  |  | no binding | no binding | 2.51 | 3.91 | 90.4 | 0.00352 | 38900 | EC50 (mouse 4-1BB-His protein [5]): 402 ng/mL |
| B6 |  |  |  | no binding | no binding | 2.06 | 3.54 | 21 | 0.00818 | 390000 | EC50 (read off the curve) [1]: 3 nM; EC50 (mouse 4-1BB-His protein [5]): 4.42 ng/mL |
| B7 | 3070 | 0.0266 | 8670 |  |  |  |  |  |  |  |  |
| B8 |  |  |  | no binding | no binding | 5.2 | 4.81 | 0.526 | 0.000546 | 1.04e+06 | binding result (mouse 4-1BB-His protein [8]): no binding |
| B9 | 13.6 | 0.00716 | 526000 |  |  |  |  |  |  |  |  |
| B10 | 6.58 | 0.00156 | 237000 |  |  |  |  |  |  |  |  |
| B11 | 4.97 | 0.00646 | 1.3e+06 |  |  |  |  |  |  |  |  |
| B12 |  |  |  | no binding | no binding | 2.42 | 4.06 | 3.16 | 0.0048 | 1.52e+06 | binding result (mouse 4-1BB-His protein [8]): no binding; EC50 (read off the curve) [1]: 3 nM |
| B13 | 13.1 | 0.0068 | 517000 |  |  |  |  |  |  |  |  |
| B14 | 4.74 | 0.00545 | 1.15e+06 |  |  |  |  |  |  |  |  |

Reference: US20240417482A1 (CONCEPT TO MEDICINE BIOTECH, published 2024)
